In patent publication US20240383990A1 (DIAGONAL THERAPEUTICS, published 2024):
Read-outs that look alike come from different tables or passages of the source.

B1: PRO005 (bispecific antibody)
chain: EVQLLESGGGLVQPGGSLRLSCAASGFTFSSYAMSWVRQAPGKGLEWVANINQDGSEKNYVDSMRGRFTISRDNSKNTLYLQMNSLRAEDTAVYYCAREFDYWGQGTLVTVTSSGGGGSGGGGSGGGGSQSVLAQPPSASGTPGQRVTISCSGSSSNIGSNYVYWYQQLPGTAPKLLIYGNNKRPSGVPDRFSGSKSGTSASLAISGLRSEDEADYYCAAWDDSLNGRVFGGGTKLTVLDKTHTCPPCPAPEAAGAPSVFLFPPKPKDTLMISRTPEVTCVVVDVSHEDPEVKFNWYVDGVEVHNAKTKPREEQYNSTYRVVSVLTVLHQDWLNGKEYKCKVSNKALPAPIEKTISKAKGQPREPQVYTLPPSRDELTKNQVSLTCLVKGFYPSDIAVEWESNGQPENNYKTTPPVLDSDGSFFLYSKLTVDKSRWQQGNVFSCSVMHEALHNHYTQKSLSLSPGGGGGSGGGGSEVQLLESGGGLVQPGGSLRLSCAASGFTFSDYYMTWIRQAPGKGLEWVSSISGGSTYYADSRKGRFTISRDNSENTLYLQMNSLRAEDTAVYYCARDFGVAGWFGQYGMDVWGQGTLVTVSSGGGGSGGGGSGGGGSQSVLTQPPSASGTPGQRVTISCTGSSSNIGAGYDVHWYQQLPGTAPKLLIYRSNQRPSGVPDRFSGSKSGTSASLAISGLRSEDEADYYCSSYAGNYNLVFGGGTKLTVL
B2: PRO003 (bispecific antibody)
chain: EVQLLESGGGLVQPGGSLRLSCAASGFTFSIYAMSWVRQAPGKGLEWVSAISGSGGSTYYADSVKGRFTISRDNSKNTLYLQMNSLRAEDTAVYYCARDFDYWGQGTLVTVTSSGGGGSGGGGSGGGGSQSVLTQPPSASGTPGQRVTISCSGSSSNIGSNYVYWYQQLPGTAPKLLIYGNINRPSGVPDRFSGSKSGTSASLAISGLRSEDEADYYCAAWDDSLNGRVFGGGTKLTVLDKTHTCPPCPAPEAAGAPSVFLFPPKPKDTLMISRTPEVTCVVVDVSHEDPEVKFNWYVDGVEVHNAKTKPREEQYNSTYRVVSVLTVLHQDWLNGKEYKCKVSNKALPAPIEKTISKAKGQPREPQVYTLPPSRDELTKNQVSLTCLVKGFYPSDIAVEWESNGQPENNYKTTPPVLDSDGSFFLYSKLTVDKSRWQQGNVFSCSVMHEALHNHYTQKSLSLSPGGGGGSGGGGSEVQLLESGGGLVQPGGSLRLSCAASGFTFSNAWMNWVRQAPGKGLEWVSSISSSSSYIYYADSVKGRFTISRDNSKNTLYLQMNSLRAEDTAVYYCARAVAAGGMFWGLDQWGQGTLVTVTSSGGGGSGGGGSGGGGSQSVLTQPPSASGTPGQRVTISCSGSRSNIGSNSVHWYQQLPGTAPKLLIYGNSNRPSGVPDRFSGSKSGTSASLAISGLRSEDEADYYCQSYDSSLNDHVVFGGGTKLTVL
B3: PRO004 (bispecific antibody)
chain: EVQLLESGGGLVQPGGSLRLSCAASGFTFSNAWMNWVRQAPGKGLEWVSSISSSSSYIYYADSVKGRFTISRDNSKNTLYLQMNSLRAEDTAVYYCARAVAAGGMFWGLDQWGQGTLVTVTSSGGGGSGGGGSGGGGSQSVLTQPPSASGTPGQRVTISCSGSRSNIGSNSVHWYQQLPGTAPKLLIYGNSNRPSGVPDRFSGSKSGTSASLAISGLRSEDEADYYCQSYDSSLNDHVVFGGGTKLTVLDKTHTCPPCPAPEAAGAPSVFLFPPKPKDTLMISRTPEVTCVVVDVSHEDPEVKFNWYVDGVEVHNAKTKPREEQYNSTYRVVSVLTVLHQDWLNGKEYKCKVSNKALPAPIEKTISKAKGQPREPQVYTLPPSRDELTKNQVSLTCLVKGFYPSDIAVEWESNGQPENNYKTTPPVLDSDGSFFLYSKLTVDKSRWQQGNVFSCSVMHEALHNHYTQKSLSLSPGGGGGSGGGGSEVQLLESGGGLVQPGGSLRLSCAASGFTFSIYAMSWVRQAPGKGLEWVSAISGSGGSTYYADSVKGRFTISRDNSKNTLYLQMNSLRAEDTAVYYCARDFDYWGQGTLVTVTSSGGGGSGGGGSGGGGSQSVLTQPPSASGTPGQRVTISCSGSSSNIGSNYVYWYQQLPGTAPKLLIYGNINRPSGVPDRFSGSKSGTSASLAISGLRSEDEADYYCAAWDDSLNGRVFGGGTKLTVL
B4: DGL288 (bispecific antibody)
chain: EVQLLESGGGLVQPGGSLRLSCAASGFTFSDYYMTWIRQAPGKGLEWVSSISGGSTYYADSRKGRFTISRDNSENTLYLQMNSLRAEDTAVYYCARDFGVAGWFGQYGMDVWGQGTLVTVSSGGGGSGGGGSGGGGSQSVLTQPPSASGTPGQRVTISCTGSSSNIGAGYDVHWYQQLPGTAPKLLIYRSNQRPSGVPDRFSGSKSGTSASLAISGLRSEDEADYYCSSYAGNYNLVFGGGTKLTVLDKGPSVFPLAPEPKSSEVQLLESGGGLVQPGGSLRLSCAASGFTFSSYAMSWVRQAPGKGLEWVANINQDGSEKNYVDSMRGRFTISRDNSKNTLYLQMNSLRAEDTAVYYCAREFDYWGQGTLVTVTSSGGGGSGGGGSGGGGSQSVLAQPPSASGTPGQRVTISCSGSSSNIGSNYVYWYQQLPGTAPKLLIYGNNKRPSGVPDRFSGSKSGTSASLAISGLRSEDEADYYCAAWDDSLNGRVFGGGTKLTVLDKTHTCPPCPAPEAAGAPSVFLFPPKPKDTLMISRTPEVTCVVVDVSHEDPEVKFNWYVDGVEVHNAKTKPREEQYNSTYRVVSVLTVLHQDWLNGKEYKCKVSNKALPAPIEKTISKAKGQPREPQVYTLPPSRDELTKNQVSLTCLVKGFYPSDIAVEWESNGQPENNYKTTPPVLDSDGSFFLYSKLTVDKSRWQQGNVFSCSVMHEALHNHYTQKSLSLSPG
B5: PRO006 (bispecific antibody)
chain: EVQLLESGGGLVQPGGSLRLSCAASGFTFSDYYMTWIRQAPGKGLEWVSSISGGSTYYADSRKGRFTISRDNSENTLYLQMNSLRAEDTAVYYCARDFGVAGWFGQYGMDVWGQGTLVTVSSGGGGSGGGGSGGGGSQSVLTQPPSASGTPGQRVTISCTGSSSNIGAGYDVHWYQQLPGTAPKLLIYRSNQRPSGVPDRFSGSKSGTSASLAISGLRSEDEADYYCSSYAGNYNLVFGGGTKLTVLDKTHTCPPCPAPEAAGAPSVFLFPPKPKDTLMISRTPEVTCVVVDVSHEDPEVKFNWYVDGVEVHNAKTKPREEQYNSTYRVVSVLTVLHQDWLNGKEYKCKVSNKALPAPIEKTISKAKGQPREPQVYTLPPSRDELTKNQVSLTCLVKGFYPSDIAVEWESNGQPENNYKTTPPVLDSDGSFFLYSKLTVDKSRWQQGNVFSCSVMHEALHNHYTQKSLSLSPGGGGGSGGGGSEVQLLESGGGLVQPGGSLRLSCAASGFTFSSYAMSWVRQAPGKGLEWVANINQDGSEKNYVDSMRGRFTISRDNSKNTLYLQMNSLRAEDTAVYYCAREFDYWGQGTLVTVTSSGGGGSGGGGSGGGGSQSVLAQPPSASGTPGQRVTISCSGSSSNIGSNYVYWYQQLPGTAPKLLIYGNNKRPSGVPDRFSGSKSGTSASLAISGLRSEDEADYYCAAWDDSLNGRVFGGGTKLTVL

How the values were obtained:
Test in all cases: cell-based or functional assay
[1] = target: T1, ALK1 / BMPRII receptor pair (BMPR Type I receptor ALK1 and BMPR Type II receptor BMPRII) on cells (UniProt P37023 22-503; Q13873 27-1038, limits assumed)
T1 sequence (P37023 22-503 limits assumed, chain 1 of 2): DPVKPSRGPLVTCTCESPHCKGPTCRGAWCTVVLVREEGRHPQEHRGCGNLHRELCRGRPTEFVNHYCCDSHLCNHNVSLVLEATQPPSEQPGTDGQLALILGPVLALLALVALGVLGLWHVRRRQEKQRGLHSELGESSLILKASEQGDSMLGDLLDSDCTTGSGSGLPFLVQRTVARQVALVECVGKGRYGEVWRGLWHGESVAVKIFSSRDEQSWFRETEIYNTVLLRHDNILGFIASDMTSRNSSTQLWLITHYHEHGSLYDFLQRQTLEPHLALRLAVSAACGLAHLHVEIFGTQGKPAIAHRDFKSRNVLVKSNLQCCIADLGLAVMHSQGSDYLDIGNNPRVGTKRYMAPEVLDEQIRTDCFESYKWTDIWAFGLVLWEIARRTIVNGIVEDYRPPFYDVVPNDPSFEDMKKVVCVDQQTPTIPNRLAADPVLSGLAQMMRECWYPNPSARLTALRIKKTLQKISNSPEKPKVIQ
T1 sequence (Q13873 27-1038 limits assumed, chain 2 of 2): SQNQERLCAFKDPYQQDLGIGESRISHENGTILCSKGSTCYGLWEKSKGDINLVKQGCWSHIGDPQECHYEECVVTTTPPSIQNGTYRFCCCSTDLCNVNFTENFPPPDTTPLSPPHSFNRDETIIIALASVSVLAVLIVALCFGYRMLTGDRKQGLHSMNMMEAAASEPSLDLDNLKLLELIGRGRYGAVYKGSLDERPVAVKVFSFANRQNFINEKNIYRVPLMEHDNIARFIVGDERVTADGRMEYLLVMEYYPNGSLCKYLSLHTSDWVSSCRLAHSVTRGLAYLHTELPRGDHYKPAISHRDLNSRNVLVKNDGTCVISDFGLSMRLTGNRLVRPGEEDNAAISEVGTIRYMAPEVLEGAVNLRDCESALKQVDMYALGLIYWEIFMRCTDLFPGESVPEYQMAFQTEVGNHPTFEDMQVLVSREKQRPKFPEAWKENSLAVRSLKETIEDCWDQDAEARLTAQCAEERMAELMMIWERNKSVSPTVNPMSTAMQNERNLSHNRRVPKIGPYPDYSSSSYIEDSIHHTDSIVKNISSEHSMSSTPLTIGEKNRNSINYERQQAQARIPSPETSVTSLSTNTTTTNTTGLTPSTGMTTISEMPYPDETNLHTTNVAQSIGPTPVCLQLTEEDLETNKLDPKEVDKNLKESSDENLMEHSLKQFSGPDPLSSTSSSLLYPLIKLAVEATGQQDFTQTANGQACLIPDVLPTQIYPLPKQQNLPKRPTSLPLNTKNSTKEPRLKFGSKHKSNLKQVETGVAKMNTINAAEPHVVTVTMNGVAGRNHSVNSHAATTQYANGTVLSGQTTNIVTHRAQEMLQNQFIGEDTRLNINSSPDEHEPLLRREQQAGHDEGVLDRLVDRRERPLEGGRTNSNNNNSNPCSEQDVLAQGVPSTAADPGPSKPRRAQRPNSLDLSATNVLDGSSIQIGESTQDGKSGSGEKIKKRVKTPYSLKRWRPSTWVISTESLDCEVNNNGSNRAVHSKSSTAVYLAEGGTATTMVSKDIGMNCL

[2] = target: T1, ALK1 / BMPRII receptor pair (BMPR Type …); remark: listed apart in the source
[3] = target: T1, ALK1 / BMPRII receptor pair (BMPR Type …); remark: listed apart in the source

Row | Binder | Agonist activity, % Emax BMP9 [1] [% Emax BMP9] | Agonist activity, EC50 [1] [pM] | Agonist activity, EMAX (RLU) [1] [RLU] | Agonist activity, % Emax BMP9 [2] [% Emax BMP9] | Agonist activity, EC50 [2] [pM] | Agonist activity, EMAX (RLU) [2] [RLU] | pSMAD1 ELISA in HUVEC, RLU 15 minutes, at 0 nM (baseline) [3] [RLU] | pSMAD1 ELISA in HUVEC, RLU 15 minutes, at 0.4 nM [3] [RLU] | pSMAD1 ELISA in HUVEC, RLU 15 minutes, at 2 nM [3] [RLU] | pSMAD1 ELISA in HUVEC, RLU 15 minutes, at 10 nM [3] [RLU] | pSMAD1 ELISA in HUVEC, RLU 60 minutes, at 0 nM (baseline) [3] [RLU] | pSMAD1 ELISA in HUVEC, RLU 60 minutes, at 0.4 nM [3] [RLU] | pSMAD1 ELISA in HUVEC, RLU 60 minutes, at 2 nM [3] [RLU] | pSMAD1 ELISA in HUVEC, RLU 60 minutes, at 10 nM [3] [RLU]
1 | B1 | 35 | 75 | 931000 | 35 | 75 | 931000 |  |  |  |  |  |  |  | 
2 | B2 | 47 | 100 | 1.25e+06 | 47 | 100 | 1.25e+06 |  |  |  |  |  |  |  | 
3 | B3 | 46 | 500 | 1.21e+06 | 46 | 500 | 1.21e+06 |  |  |  |  |  |  |  | 
4 | B4 | 76 | 70 | 2e+06 | 76 | 70 | 2e+06 | 4.5 | 4.9 | 6.5 | 6.7 | 4.5 | 35 | 26.9 | 22.7
5 | B5 | 35 | 100 | 929000 | 35 | 100 | 929000 |  |  |  |  |  |  |  | 
